Values of other authors in paper PMC12093155.

Target: Prx1 (Homo sapiens) (UniProt Q06830)
Sequence (Q06830 2-199): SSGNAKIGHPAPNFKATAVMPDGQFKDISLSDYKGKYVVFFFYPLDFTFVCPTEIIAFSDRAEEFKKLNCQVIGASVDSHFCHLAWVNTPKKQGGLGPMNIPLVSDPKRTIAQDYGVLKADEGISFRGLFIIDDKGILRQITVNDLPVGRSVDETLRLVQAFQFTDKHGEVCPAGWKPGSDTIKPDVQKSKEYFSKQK

Srx, sequence (Q9BYN0 whole entry): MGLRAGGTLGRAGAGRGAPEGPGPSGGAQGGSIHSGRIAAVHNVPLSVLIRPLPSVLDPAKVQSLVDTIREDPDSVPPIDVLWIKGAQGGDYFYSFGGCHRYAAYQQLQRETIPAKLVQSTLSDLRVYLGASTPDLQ

In the case of Srx (from UniProt Q9BYN0), the Kd is given as 7 µM.
